Reference: article doi:10.1101/2023.04.01.535208
One block for each substance: values may come before it.

Columns and labels:
[1] = target: chimeric V2R harboring the carboxy-terminal tail of the β2-adrenergic receptor (V2β2AR)
[2] = target: vasopressin type 2 receptor (V2R) (UniProt P30518)
[3] = target: vasopressin type 2 receptor (V2R) (UniProt P30518); remark: listed apart in the source

potency of AVP for recruitment of Rluc-mGsq to early endosomes (EbBRET with rGFP-Rab5), cells expressing V2β2AR [1]: -7.82 LogEC50 | potency of AVP for recruitment of Rluc-mGsq to the plasma membrane (EbBRET with rGFP-CAAX), cells expressing V2β2AR [1]: -7.97 LogEC50 | transduction coefficient (operational model) of AVP for recruitment of Rluc-mGs to the plasma membrane, cells expressing V2β2AR [1]: 8.04 Logτ/Ka | transduction coefficient (operational model) of AVP for recruitment of Rluc-mGsq to early endosomes, cells expressing V2β2AR [1]: 7.91 Logτ/Ka
Substance: arginine vasopressin (AVP) (peptide)

AVP-induced maximal efficacy of the AVP dose-response of Rluc-mGs recruitment to early endosomes (EbBRET with rGFP-Rab5), parental HEK293 cells, 45 minutes [2]: 0.18 ΔEbBRET | AVP-induced maximal efficacy of the AVP dose-response of Rluc-mGs recruitment to early endosomes (EbBRET with rGFP-Rab5), Δβarr1/2 HEK293 cells, 45 minutes [2]: 0.074 ΔEbBRET | AVP-induced maximal efficacy of the AVP dose-response of Rluc-mGs recruitment to the plasma membrane (EbBRET with rGFP-CAAX), parental HEK293 cells, 10 minutes [2]: 0.324 ΔEbBRET | AVP-induced maximal efficacy of the AVP dose-response of Rluc-mGs recruitment to the plasma membrane (EbBRET with rGFP-CAAX), Δβarr1/2 HEK293 cells, 10 minutes [2]: 0.376 ΔEbBRET | AVP-mediated maximal efficacy of the AVP dose-response of Rluc-mGs recruitment to early endosomes (EbBRET with rGFP-Rab5), cells expressing V2R [3]: 0.167 ΔEbBRET | AVP-mediated maximal efficacy of the AVP dose-response of Rluc-mGs recruitment to the plasma membrane (EbBRET with rGFP-CAAX), cells expressing V2R [3]: 0.3 ΔEbBRET | AVP-mediated maximal efficacy of the AVP dose-response of Rluc-mGs recruitment to early endosomes (EbBRET with rGFP-Rab5), cells expressing V2β2AR [1]: 0.15 ΔEbBRET | AVP-mediated maximal efficacy of the AVP dose-response of Rluc-mGs recruitment to the plasma membrane (EbBRET with rGFP-CAAX), cells expressing V2β2AR [1]: 0.392 ΔEbBRET
Substance: mini G protein mGs

AVP-induced maximal efficacy of the AVP dose-response of Rluc-mGsq recruitment to early endosomes (EbBRET with rGFP-Rab5), parental HEK293 cells, 45 minutes [2]: 0.05 ΔEbBRET | AVP-induced maximal efficacy of the AVP dose-response of Rluc-mGsq recruitment to early endosomes (EbBRET with rGFP-Rab5), Δβarr1/2 HEK293 cells, 45 minutes [2]: 0.024 ΔEbBRET | AVP-induced maximal efficacy of the AVP dose-response of Rluc-mGsq recruitment to the plasma membrane (EbBRET with rGFP-CAAX), parental HEK293 cells, 10 minutes [2]: 0.168 ΔEbBRET | AVP-induced maximal efficacy of the AVP dose-response of Rluc-mGsq recruitment to the plasma membrane (EbBRET with rGFP-CAAX), Δβarr1/2 HEK293 cells, 10 minutes [2]: 0.18 ΔEbBRET | AVP-mediated maximal efficacy of the AVP dose-response of Rluc-mGsq recruitment to early endosomes (EbBRET with rGFP-Rab5), cells expressing V2R [3]: 0.05 ΔEbBRET | AVP-mediated maximal efficacy of the AVP dose-response of Rluc-mGsq recruitment to the plasma membrane (EbBRET with rGFP-CAAX), cells expressing V2R [3]: 0.161 ΔEbBRET | AVP-mediated maximal efficacy of the AVP dose-response of Rluc-mGsq recruitment to early endosomes (EbBRET with rGFP-Rab5), cells expressing V2β2AR [1]: 0.061 ΔEbBRET | AVP-mediated maximal efficacy of the AVP dose-response of Rluc-mGsq recruitment to the plasma membrane (EbBRET with rGFP-CAAX), cells expressing V2β2AR [1]: 0.183 ΔEbBRET
Substance: mini G protein mGsq
